Our source for the IC50 values is patent US20140087995A1 (published 2014).

B1: N^ε1-[(4S)-4-carboxy-4-[[(4S)-4-carboxy-4-(19-carboxynonadecanoylamino)butanoyl]amino]butanoyl]-[Asp14,Arg17,Pro21,Pro27,Asp35]-h-amylin (peptide)
peptide: K([γGlu-γGlu-C20 diacid])CNTATCATQRLADFLRHSSPNFGAIPSSTNVGSDTY-NH2
modifications: disulfide 2-7; N-terminus assumed
SMILES: CC[C@H](C)[C@H](NC(=O)[C@H](C)NC(=O)CNC(=O)[C@H](Cc1ccccc1)NC(=O)[C@H](CC(N)=O)NC(=O)[C@@H]1CCCN1C(=O)[C@H](CO)NC(=O)[C@H](CO)NC(=O)[C@H](Cc1c[nH]cn1)NC(=O)[C@H](CCCNC(=N)N)NC(=O)[C@H](CC(C)C)NC(=O)[C@H](Cc1ccccc1)NC(=O)[C@H](CC(=O)O)NC(=O)[C@H](C)NC(=O)[C@H](CC(C)C)NC(=O)[C@H](CCCNC(=N)N)NC(=O)[C@H](CCC(N)=O)NC(=O)[C@@H](NC(=O)[C@H](C)NC(=O)[C@@H]1CSSC[C@H](NC(=O)[C@@H](N)CCCCNC(=O)CC[C@H](NC(=O)CC[C@H](NC(=O)CCCCCCCCCCCCCCCCCCC(=O)O)C(=O)O)C(=O)O)C(=O)N[C@@H](CC(N)=O)C(=O)N[C@@H]([C@@H](C)O)C(=O)N[C@@H](C)C(=O)N[C@@H]([C@@H](C)O)C(=O)N1)[C@@H](C)O)C(=O)N1CCC[C@H]1C(=O)N[C@@H](CO)C(=O)N[C@@H](CO)C(=O)N[C@H](C(=O)N[C@@H](CC(N)=O)C(=O)N[C@H](C(=O)NCC(=O)N[C@@H](CO)C(=O)N[C@@H](CC(=O)O)C(=O)N[C@H](C(=O)N[C@@H](Cc1ccc(O)cc1)C(N)=O)[C@@H](C)O)C(C)C)[C@@H](C)O
notes: also called compound 2
B2: N{Alpha-1}-[(4S)-4-carboxy-4-(19-carboxynonadecanoylamino)butanoyl]-[Glu14,Arg17,Pro21,Pro27,Lys34]-h-amylin (peptide)
peptide: {C20 diacid-γGlu}-KCNTATCATQRLAEFLRHSSPNFGAIPSSTNVGKNTY-NH2
modifications: disulfide 2-7
SMILES: CC[C@H](C)[C@H](NC(=O)[C@H](C)NC(=O)CNC(=O)[C@H](Cc1ccccc1)NC(=O)[C@H](CC(N)=O)NC(=O)[C@@H]1CCCN1C(=O)[C@H](CO)NC(=O)[C@H](CO)NC(=O)[C@H](Cc1c[nH]cn1)NC(=O)[C@H](CCCNC(=N)N)NC(=O)[C@H](CC(C)C)NC(=O)[C@H](Cc1ccccc1)NC(=O)[C@H](CCC(=O)O)NC(=O)[C@H](C)NC(=O)[C@H](CC(C)C)NC(=O)[C@H](CCCNC(=N)N)NC(=O)[C@H](CCC(N)=O)NC(=O)[C@@H](NC(=O)[C@H](C)NC(=O)[C@@H]1CSSC[C@H](NC(=O)[C@H](CCCCN)NC(=O)CC[C@H](NC(=O)CCCCCCCCCCCCCCCCCCC(=O)O)C(=O)O)C(=O)N[C@@H](CC(N)=O)C(=O)N[C@@H]([C@@H](C)O)C(=O)N[C@@H](C)C(=O)N[C@@H]([C@@H](C)O)C(=O)N1)[C@@H](C)O)C(=O)N1CCC[C@H]1C(=O)N[C@@H](CO)C(=O)N[C@@H](CO)C(=O)N[C@H](C(=O)N[C@@H](CC(N)=O)C(=O)N[C@H](C(=O)NCC(=O)N[C@@H](CCCCN)C(=O)N[C@@H](CC(N)=O)C(=O)N[C@H](C(=O)N[C@@H](Cc1ccc(O)cc1)C(N)=O)[C@@H](C)O)C(C)C)[C@@H](C)O
notes: also called compound 36
B3: N^ε1-[(4S)-4-carboxy-4-[[(4S)-4-carboxy-4-(19-carboxynonadecanoylamino)butanoyl]amino]butanoyl]-[Asp14,Arg17,Pro22,Pro26,Asp35]-h-amylin (peptide)
peptide: K([γGlu-γGlu-C20 diacid])CNTATCATQRLADFLRHSSNPFGAPLSSTNVGSDTY-NH2
modifications: disulfide 2-7; N-terminus assumed
SMILES: CC(C)C[C@H](NC(=O)[C@H](CCCNC(=N)N)NC(=O)[C@H](CCC(N)=O)NC(=O)[C@@H](NC(=O)[C@H](C)NC(=O)[C@@H]1CSSC[C@H](NC(=O)[C@@H](N)CCCCNC(=O)CC[C@H](NC(=O)CC[C@H](NC(=O)CCCCCCCCCCCCCCCCCCC(=O)O)C(=O)O)C(=O)O)C(=O)N[C@@H](CC(N)=O)C(=O)N[C@@H]([C@@H](C)O)C(=O)N[C@@H](C)C(=O)N[C@@H]([C@@H](C)O)C(=O)N1)[C@@H](C)O)C(=O)N[C@@H](C)C(=O)N[C@@H](CC(=O)O)C(=O)N[C@@H](Cc1ccccc1)C(=O)N[C@@H](CC(C)C)C(=O)N[C@@H](CCCNC(=N)N)C(=O)N[C@@H](Cc1c[nH]cn1)C(=O)N[C@@H](CO)C(=O)N[C@@H](CO)C(=O)N[C@@H](CC(N)=O)C(=O)N1CCC[C@H]1C(=O)N[C@@H](Cc1ccccc1)C(=O)NCC(=O)N[C@@H](C)C(=O)N1CCC[C@H]1C(=O)N[C@@H](CC(C)C)C(=O)N[C@@H](CO)C(=O)N[C@@H](CO)C(=O)N[C@H](C(=O)N[C@@H](CC(N)=O)C(=O)N[C@H](C(=O)NCC(=O)N[C@@H](CO)C(=O)N[C@@H](CC(=O)O)C(=O)N[C@H](C(=O)N[C@@H](Cc1ccc(O)cc1)C(N)=O)[C@@H](C)O)C(C)C)[C@@H](C)O
notes: also called compound 3
B4: N^ε1-[2-[2-[2-[[(4S)-4-carboxy-4-(19-carboxynonadecanoylamino)butanoyl]amino]ethoxy]ethoxy]acetyl]-[Arg17,Pro21,Pro27]-h-amylin (peptide)
peptide: K([AEEA-γGlu-C20 diacid])CNTATCATQRLANFLRHSSPNFGAIPSSTNVGSNTY-NH2
modifications: disulfide 2-7; N-terminus assumed
SMILES: CC[C@H](C)[C@H](NC(=O)[C@H](C)NC(=O)CNC(=O)[C@H](Cc1ccccc1)NC(=O)[C@H](CC(N)=O)NC(=O)[C@@H]1CCCN1C(=O)[C@H](CO)NC(=O)[C@H](CO)NC(=O)[C@H](Cc1c[nH]cn1)NC(=O)[C@H](CCCNC(=N)N)NC(=O)[C@H](CC(C)C)NC(=O)[C@H](Cc1ccccc1)NC(=O)[C@H](CC(N)=O)NC(=O)[C@H](C)NC(=O)[C@H](CC(C)C)NC(=O)[C@H](CCCNC(=N)N)NC(=O)[C@H](CCC(N)=O)NC(=O)[C@@H](NC(=O)[C@H](C)NC(=O)[C@@H]1CSSC[C@H](NC(=O)[C@@H](N)CCCCNC(=O)COCCOCCNC(=O)CC[C@H](NC(=O)CCCCCCCCCCCCCCCCCCC(=O)O)C(=O)O)C(=O)N[C@@H](CC(N)=O)C(=O)N[C@@H]([C@@H](C)O)C(=O)N[C@@H](C)C(=O)N[C@@H]([C@@H](C)O)C(=O)N1)[C@@H](C)O)C(=O)N1CCC[C@H]1C(=O)N[C@@H](CO)C(=O)N[C@@H](CO)C(=O)N[C@H](C(=O)N[C@@H](CC(N)=O)C(=O)N[C@H](C(=O)NCC(=O)N[C@@H](CO)C(=O)N[C@@H](CC(N)=O)C(=O)N[C@H](C(=O)N[C@@H](Cc1ccc(O)cc1)C(N)=O)[C@@H](C)O)C(C)C)[C@@H](C)O
notes: also called compound 41
B5: N^ε1-[2-[2-[2-(19-carboxynonadecanoylamino)ethoxy]ethoxy]acetyl]-[Arg17,Pro21,Pro27]-h-amylin (peptide)
peptide: K([AEEA-C20 diacid])CNTATCATQRLANFLRHSSPNFGAIPSSTNVGSNTY-NH2
modifications: disulfide 2-7; N-terminus assumed
SMILES: CC[C@H](C)[C@H](NC(=O)[C@H](C)NC(=O)CNC(=O)[C@H](Cc1ccccc1)NC(=O)[C@H](CC(N)=O)NC(=O)[C@@H]1CCCN1C(=O)[C@H](CO)NC(=O)[C@H](CO)NC(=O)[C@H](Cc1c[nH]cn1)NC(=O)[C@H](CCCNC(=N)N)NC(=O)[C@H](CC(C)C)NC(=O)[C@H](Cc1ccccc1)NC(=O)[C@H](CC(N)=O)NC(=O)[C@H](C)NC(=O)[C@H](CC(C)C)NC(=O)[C@H](CCCNC(=N)N)NC(=O)[C@H](CCC(N)=O)NC(=O)[C@@H](NC(=O)[C@H](C)NC(=O)[C@@H]1CSSC[C@H](NC(=O)[C@@H](N)CCCCNC(=O)COCCOCCNC(=O)CCCCCCCCCCCCCCCCCCC(=O)O)C(=O)N[C@@H](CC(N)=O)C(=O)N[C@@H]([C@@H](C)O)C(=O)N[C@@H](C)C(=O)N[C@@H]([C@@H](C)O)C(=O)N1)[C@@H](C)O)C(=O)N1CCC[C@H]1C(=O)N[C@@H](CO)C(=O)N[C@@H](CO)C(=O)N[C@H](C(=O)N[C@@H](CC(N)=O)C(=O)N[C@H](C(=O)NCC(=O)N[C@@H](CO)C(=O)N[C@@H](CC(N)=O)C(=O)N[C@H](C(=O)N[C@@H](Cc1ccc(O)cc1)C(N)=O)[C@@H](C)O)C(C)C)[C@@H](C)O
notes: also called compound 43
B6: N^α1-[2-[2-[2-[[2-[2-[2-[[(4S)-4-carboxy-4-(19-carboxynonadecanoylamino)butanoyl]amino]ethoxy]ethoxy]acetyl]amino]ethoxy]ethoxy]acetyl]-[Arg17,Pro21,Pro27]-h-am … (peptide)
peptide: KCNTATCATQRLANFLRHSSPNFGAIPSSTNVGSNTY
modifications: C20 diacid-gGlu-2xOEG on the alpha amino group of the N-terminal Lys1; disulfide Cys2-Cys7; C-terminal amide
notes: also called compound 24
B7: N^α1-[(4S)-4-carboxy-4-(19-carboxynonadecanoylamino)butanoyl]-[Glu14,Arg17,Pro21,Pro25,Pro28,Pro29]-h-amylin (peptide)
peptide: {C20 diacid-γGlu}-KCNTATCATQRLAEFLRHSSPNFGPILPPTNVGSNTY-NH2
modifications: disulfide 2-7
SMILES: CC[C@H](C)[C@H](NC(=O)[C@@H]1CCCN1C(=O)CNC(=O)[C@H](Cc1ccccc1)NC(=O)[C@H](CC(N)=O)NC(=O)[C@@H]1CCCN1C(=O)[C@H](CO)NC(=O)[C@H](CO)NC(=O)[C@H](Cc1c[nH]cn1)NC(=O)[C@H](CCCNC(=N)N)NC(=O)[C@H](CC(C)C)NC(=O)[C@H](Cc1ccccc1)NC(=O)[C@H](CCC(=O)O)NC(=O)[C@H](C)NC(=O)[C@H](CC(C)C)NC(=O)[C@H](CCCNC(=N)N)NC(=O)[C@H](CCC(N)=O)NC(=O)[C@@H](NC(=O)[C@H](C)NC(=O)[C@@H]1CSSC[C@H](NC(=O)[C@H](CCCCN)NC(=O)CC[C@H](NC(=O)CCCCCCCCCCCCCCCCCCC(=O)O)C(=O)O)C(=O)N[C@@H](CC(N)=O)C(=O)N[C@@H]([C@@H](C)O)C(=O)N[C@@H](C)C(=O)N[C@@H]([C@@H](C)O)C(=O)N1)[C@@H](C)O)C(=O)N[C@@H](CC(C)C)C(=O)N1CCC[C@H]1C(=O)N1CCC[C@H]1C(=O)N[C@H](C(=O)N[C@@H](CC(N)=O)C(=O)N[C@H](C(=O)NCC(=O)N[C@@H](CO)C(=O)N[C@@H](CC(N)=O)C(=O)N[C@H](C(=O)N[C@@H](Cc1ccc(O)cc1)C(N)=O)[C@@H](C)O)C(C)C)[C@@H](C)O
notes: also called compound 6

Numbered stars: 1 amine (or outer) side, 2 acyl side, 3 side chain; on linkers, the order of the positions; unused ones are H or OH. Bridge positions count the residues as written; N and C are the ends. Side chains are listed from the residue outwards. Ends that are not written are not given here. * marks the point of attachment. C20 diacid = O=C(O)CCCCCCCCCCCCCCCCCCC(=O)*; γGlu = O=C(O)[C@H](CCC(=O)[*:2])N[*:1]; AEEA = NCCOCCOCC(=O)O

The experiment addresses T1, human calcitonin receptor (human, UniProt P30988 25-474).
T1 construct: whole, on cells; Used as cell membranes prepared from the transfected BHK cells (Assay VII), not as intact cells; also called hCTR; hCT
T1 sequence (looked up): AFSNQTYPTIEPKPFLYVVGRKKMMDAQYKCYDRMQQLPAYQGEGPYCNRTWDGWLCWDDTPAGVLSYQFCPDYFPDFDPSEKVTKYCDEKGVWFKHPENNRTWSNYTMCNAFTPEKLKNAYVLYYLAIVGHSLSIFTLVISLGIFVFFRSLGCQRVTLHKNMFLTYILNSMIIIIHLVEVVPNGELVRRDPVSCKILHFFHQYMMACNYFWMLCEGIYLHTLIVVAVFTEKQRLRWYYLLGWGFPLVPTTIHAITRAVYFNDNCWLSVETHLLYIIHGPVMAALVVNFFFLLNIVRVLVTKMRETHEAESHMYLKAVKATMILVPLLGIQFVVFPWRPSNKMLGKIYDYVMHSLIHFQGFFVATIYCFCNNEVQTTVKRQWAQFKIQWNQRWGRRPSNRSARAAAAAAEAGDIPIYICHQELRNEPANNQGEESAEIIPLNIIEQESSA
Briefly: SPA competition against 125I-calcitonin, membranes with human calcitonin receptor (Assay VII). The essentials: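 BHK hCTR membranes 35 ng/μL + SPA beads 0.05 mg/well; buffer 50 mM Hepes pH 7.4, 1 mM CaCl2, 5 mM MgCl₂, 0.1% OA, 0.02% Tween20. 120 min, 25° C., shaking. Scintillation count; IC50 by one-site binding competition.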
On to B1, for which the IC50 turned out to be 19.5 nM. Consider B2, for which the IC50 amounted to 6.3 nM. Regarding B3, the IC50 was found to be 19.5 nM. On to B4, for which the 50% inhibitory concentration (IC50) came to 21.3 nM. As for B5, the figure is 2.64 nM; as for B6, 102 nM; as for B7, 19.9 nM.
